# Experimental data taken from IntAct's records for PubMed 20493856.
# B1: ADP-ribosylation factor 6 (Mus musculus), P62331 (parent)
# chain: MGKVLSKIFGNKEMRILMLGLDAAGKTTILYKLKLGQSVTTIPTVGFNVETVTYKNVKFNVWDVGGQDKIRPLWRHYYTGTQGLIFVVDCADRDRIDEARQELHRIINDREMRDAIILIFANKQDLPDAMKPHEIQEKLGLTRIRDRNWYVQPSCATSGDGLYEGLTWLTSNYKS
# partner: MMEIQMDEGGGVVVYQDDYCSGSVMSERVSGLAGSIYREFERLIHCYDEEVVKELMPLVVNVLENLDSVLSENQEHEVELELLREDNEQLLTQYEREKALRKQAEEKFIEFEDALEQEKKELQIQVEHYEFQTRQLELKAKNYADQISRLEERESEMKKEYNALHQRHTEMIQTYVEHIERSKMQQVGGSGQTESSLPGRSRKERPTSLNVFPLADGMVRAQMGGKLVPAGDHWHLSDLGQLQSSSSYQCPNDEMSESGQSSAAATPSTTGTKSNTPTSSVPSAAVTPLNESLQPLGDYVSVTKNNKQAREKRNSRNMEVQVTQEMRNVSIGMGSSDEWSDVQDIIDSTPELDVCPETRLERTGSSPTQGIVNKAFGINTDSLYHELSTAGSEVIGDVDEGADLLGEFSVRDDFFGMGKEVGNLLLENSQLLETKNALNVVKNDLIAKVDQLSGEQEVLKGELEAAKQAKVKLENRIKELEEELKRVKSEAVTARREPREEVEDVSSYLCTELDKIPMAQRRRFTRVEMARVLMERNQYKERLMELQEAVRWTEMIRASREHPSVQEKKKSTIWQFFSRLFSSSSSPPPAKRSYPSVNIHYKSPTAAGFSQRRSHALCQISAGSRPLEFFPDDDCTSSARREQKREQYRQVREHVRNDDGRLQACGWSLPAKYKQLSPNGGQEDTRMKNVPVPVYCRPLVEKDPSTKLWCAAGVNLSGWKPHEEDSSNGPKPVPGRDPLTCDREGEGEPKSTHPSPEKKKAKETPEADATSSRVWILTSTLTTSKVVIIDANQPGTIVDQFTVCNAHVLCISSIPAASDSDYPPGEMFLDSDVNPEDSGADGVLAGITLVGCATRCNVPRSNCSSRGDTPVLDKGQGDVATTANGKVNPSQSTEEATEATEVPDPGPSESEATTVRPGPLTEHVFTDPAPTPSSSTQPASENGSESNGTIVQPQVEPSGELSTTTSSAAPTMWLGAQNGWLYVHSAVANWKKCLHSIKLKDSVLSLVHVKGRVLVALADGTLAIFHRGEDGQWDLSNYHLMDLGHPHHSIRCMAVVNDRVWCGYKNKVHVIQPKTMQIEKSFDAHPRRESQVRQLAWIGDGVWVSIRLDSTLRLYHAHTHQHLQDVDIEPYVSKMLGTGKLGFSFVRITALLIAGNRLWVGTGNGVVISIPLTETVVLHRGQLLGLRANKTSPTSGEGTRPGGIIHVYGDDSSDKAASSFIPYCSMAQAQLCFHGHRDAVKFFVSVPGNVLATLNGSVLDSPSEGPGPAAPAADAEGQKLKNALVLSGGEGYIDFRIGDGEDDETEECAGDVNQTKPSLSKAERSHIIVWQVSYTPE
# B2: ADP-ribosylation factor 6 (Mus musculus), P62331 (parent)
# chain: B1 chain
# partner: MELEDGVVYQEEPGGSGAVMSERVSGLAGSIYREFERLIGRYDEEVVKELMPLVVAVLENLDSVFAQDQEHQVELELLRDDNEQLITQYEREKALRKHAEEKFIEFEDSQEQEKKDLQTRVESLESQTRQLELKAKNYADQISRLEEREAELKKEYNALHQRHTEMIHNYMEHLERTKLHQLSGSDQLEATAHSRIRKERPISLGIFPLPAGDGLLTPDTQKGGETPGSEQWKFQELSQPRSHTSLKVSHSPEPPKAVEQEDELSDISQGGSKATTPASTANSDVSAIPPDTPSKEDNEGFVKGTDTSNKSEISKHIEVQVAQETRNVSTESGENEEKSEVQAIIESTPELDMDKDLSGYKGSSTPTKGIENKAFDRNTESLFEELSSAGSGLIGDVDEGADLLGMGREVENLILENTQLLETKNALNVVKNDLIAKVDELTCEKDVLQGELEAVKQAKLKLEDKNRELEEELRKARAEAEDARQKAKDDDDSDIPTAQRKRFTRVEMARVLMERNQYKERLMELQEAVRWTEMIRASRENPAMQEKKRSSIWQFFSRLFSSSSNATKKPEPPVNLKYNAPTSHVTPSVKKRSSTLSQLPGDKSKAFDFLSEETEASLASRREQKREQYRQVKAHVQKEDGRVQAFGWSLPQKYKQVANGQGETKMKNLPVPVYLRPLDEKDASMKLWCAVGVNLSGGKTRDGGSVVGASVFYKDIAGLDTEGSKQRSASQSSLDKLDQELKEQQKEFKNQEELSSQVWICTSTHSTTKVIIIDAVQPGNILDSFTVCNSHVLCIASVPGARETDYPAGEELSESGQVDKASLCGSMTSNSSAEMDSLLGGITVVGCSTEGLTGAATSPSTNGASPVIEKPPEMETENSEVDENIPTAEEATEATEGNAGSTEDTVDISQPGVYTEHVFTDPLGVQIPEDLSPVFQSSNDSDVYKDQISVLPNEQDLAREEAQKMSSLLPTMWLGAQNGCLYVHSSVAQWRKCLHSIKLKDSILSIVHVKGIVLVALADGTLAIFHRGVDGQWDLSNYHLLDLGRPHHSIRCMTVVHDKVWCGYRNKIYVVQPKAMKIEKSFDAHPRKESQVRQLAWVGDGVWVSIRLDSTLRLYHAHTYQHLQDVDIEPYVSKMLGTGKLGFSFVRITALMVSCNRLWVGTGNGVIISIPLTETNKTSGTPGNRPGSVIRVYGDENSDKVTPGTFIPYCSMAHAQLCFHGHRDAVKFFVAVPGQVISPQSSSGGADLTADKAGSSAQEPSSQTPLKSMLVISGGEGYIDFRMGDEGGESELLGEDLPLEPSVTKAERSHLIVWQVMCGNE
# Variants of: B1
# Conditions: with jip3_mouse Mapk8ip3, Q9ESN9
row,effect of a mutation on the interaction,Variant
1,disrupting interaction,T53E
2,disrupting interaction,N60T
3,disrupting interaction,K58C

# Variants of: B1
# Conditions: with jip3_mouse Mapk8ip3, Q9ESN9
# Remark: another data set of the same source
row,effect of a mutation on the interaction,Variant
1,decreasing interaction,T53E

# Variants of: B1
# Conditions: with jip3_mouse Mapk8ip3, Q9ESN9
# Remark: another data set of the same source
row,effect of a mutation on the interaction,Variant
1,decreasing interaction,T27N

# Variants of: B1
# Conditions: with jip3_mouse Mapk8ip3, Q9ESN9
# Remark: another data set of the same source
row,effect of a mutation on the interaction,Variant
1,disrupting interaction,T27N

# Variants of: B1
# Conditions: with jip3_mouse Mapk8ip3, Q9ESN9
# Remark: another data set of the same source
row,effect of a mutation on the interaction,Variant
1,decreasing interaction,L19V

# Variants of: B1
# Conditions: with jip3_mouse Mapk8ip3, Q9ESN9
# Remark: another data set of the same source
row,effect of a mutation on the interaction,Variant
1,decreasing interaction,K58C

# Variants of: B2
# Conditions: with jip4_mouse Spag9, Q58A65
row,effect of a mutation on the interaction,Variant
1,decreasing interaction,L19V

# Variants of: B2
# Conditions: with jip4_mouse Spag9, Q58A65
# Remark: another data set of the same source
row,effect of a mutation on the interaction,Variant
1,disrupting interaction,T53E
2,disrupting interaction,K58C
3,disrupting interaction,N60T

# Variants of: B2
# Conditions: with jip4_mouse Spag9, Q58A65
# Remark: another data set of the same source
row,effect of a mutation on the interaction,Variant
1,decreasing interaction,T53E

# Variants of: B2
# Conditions: with jip4_mouse Spag9, Q58A65
# Remark: another data set of the same source
row,effect of a mutation on the interaction,Variant
1,disrupting interaction,T27N

# Variants of: B2
# Conditions: with jip4_mouse Spag9, Q58A65
# Remark: another data set of the same source
row,effect of a mutation on the interaction,Variant
1,decreasing interaction,T27N

# Variants of: B2
# Conditions: with jip4_mouse Spag9, Q58A65
# Remark: another data set of the same source
row,effect of a mutation on the interaction,Variant
1,decreasing interaction,K58C

# Variants of: B2
# Conditions: with jip4_mouse Spag9, Q58A65
# Remark: another data set of the same source
row,effect of a mutation on the interaction,Variant
1,decreasing interaction,N60T
